Publication PMC11362559
pKd: −log10 of the molar value.

Biological target: biotinylated I-A^b protein (SPR) (mouse)
Experiment: SPR

pKd: 4.83
Substance: mLAG3^ΔL1 (Loop 1 deletion construct of mouse LAG3) (from UniProt Q61790) (receptor)
